Source: paper PMC12578325

Biological target: Bluetongue virus serotype 1 (BTV-1) outer capsid protein VP2
Assay: Co-IP with anti-NS3 antibody, densitometry of VP2 band
Conditions: parent: est. 1.0; read off a plot

Substance	ratio to parent (relative fold change)
Bluetongue virus serotype 1 (BTV-1) non-structural glycoprotein NS3, wild type N150A	0.61
Bluetongue virus serotype 1 (BTV-1) non-structural glycoprotein NS3, wild type K196A; K197A; E198A	0.56
